Data published in patent US20110086806A1 (published 2011).

T1: recombinant human IL-23R/Fc chimera (R&D Systems) (human, UniProt Q5VWK5 24-355)
T1 construct: Bought; also called rhIL23RFc
T1 sequence (looked up): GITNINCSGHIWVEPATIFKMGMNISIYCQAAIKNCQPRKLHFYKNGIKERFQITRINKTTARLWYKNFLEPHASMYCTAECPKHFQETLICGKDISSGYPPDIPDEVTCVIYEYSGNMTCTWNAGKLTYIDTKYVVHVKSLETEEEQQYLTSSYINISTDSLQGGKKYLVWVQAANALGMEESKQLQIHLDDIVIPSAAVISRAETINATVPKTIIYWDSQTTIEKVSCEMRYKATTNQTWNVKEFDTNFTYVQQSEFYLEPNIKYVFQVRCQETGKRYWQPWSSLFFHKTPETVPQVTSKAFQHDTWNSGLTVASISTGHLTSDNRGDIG


molecular target: T1, recombinant human IL-23R/Fc chimera …; assay: competition ELISA vs IL-23
Description: Assays were performed generally as follows. Individual wells in Immulon HB2 plates were incubated overnight at 4° C. with 100 μL PBS containing 100 ng of an anti-human IgG Fc (R&D MAB 110 clone 97924). Plates were washed five times with PBS/0.05% Tween 20, and wells were incubated for 1.5 h at RT with 100 μL each of PBS containing 50 ng of recombinant human IL-23R/Fc. […] Competitor was included at a final concentration of 1 μg/mL. After incubation, plates were washed as described and wells were incubated for 40 min at RT with 100 μL each of PBS containing a 1:5000 dilution of streptavidin-HRP conjugate (Pierce catalog no. 21130). After washing, wells were incubated with 100 μL each of TMB (BioFX Lab catalog no. TMBH-1000-0) for up to 30 min at RT. Reactions were stopped with an equal volume of 0.2 M sulfuric acid.

| Binder | Ratio IC50 to 056-53.H4E IC50 |
| --- | --- |
| 105-08-2C8 ATRIMER complex (designed binder) EPPTQKPKKIVNAKKDVVNTKMFEELKSRLDTLAQEVALLKEQQALQTVCLKGTKVHMKCFLAFTQTKTFHEASEDCISRGGTLSTPQTGSENDALYEYLRQSVGNEAEIWLGLNGSWLTDTWVDMTGARIAYKNWETEITAQPDGGWGYFGENCAVLSGAANGKWFDKRCRDQLPYICQFGIV | 8.4 |
| 105-08-2G2 ATRIMER complex (designed binder) EPPTQKPKKIVNAKKDVVNTKMFEELKSRLDTLAQEVALLKEQQALQTVCLKGTKVHMKCFLAFTQTKTFHEASEDCISRGGTLSTPQTGSENDALYEYLRQSVGNEAEIWLGLNGSAITDTWVDMTGARIAYKNWETEITAQPDGGWGYFGENCAVLSGAANGKWFDKRCRDQLPYICQFGIV | 3.8 |
| 105-08-2G6 ATRIMER complex (designed binder) EPPTQKPKKIVNAKKDVVNTKMFEELKSRLDTLAQEVALLKEQQALQTVCLKGTKVHMKCFLAFTQTKTFHEASEDCISRGGTLSTPQTGSENDALYEYLRQSVGNEAEIWLGLNGSLLTDTWVDMTGARIAYKNWETEITAQPDGGWGYFGENCAVLSGAANGKWFDKRCRDQLPYICQFGIV | 5.2 |
| 105-08-2G1 ATRIMER complex (designed binder) EPPTQKPKKIVNAKKDVVNTKMFEELKSRLDTLAQEVALLKEQQALQTVCLKGTKVHMKCFLAFTQTKTFHEASEDCISRGGTLSTPQTGSENDALYEYLRQSVGNEAEIWLGLNGSPKTHTWVDMTGARIAYKNWETEITAQPDGGFGYFGENCAVLSGAANGKWFDKRCRDQLPYICQFGIV | 2.2 |
| 105-08-2C12 ATRIMER complex (designed binder, not shown: small tags and cut ends) EPPTQKPKKIVNAKKDVVNTKMFEELKSRLDTLAQEVALLKEQQALQTVCLKGTKVHMKCFLAFTQTKTFHEASEDCISRGGTLSTPQTGSENDALYEYLRQSVGNEAEIWLGLNGSQRTDTWVDMTGARIAYKNWETEITAQPDGGFGYFGENCAVLSGAANGKWFDKRCRDQLPYICQFGIV | 3.3 |
| 105-08-2C11 ATRIMER complex (designed binder) EPPTQKPKKIVNAKKDVVNTKMFEELKSRLDTLAQEVALLKEQQALQTVCLKGTKVHMKCFLAFTQTKTFHEASEDCISRGGTLSTPQTGSENDALYEYLRQSVGNEAEIWLGLNGSLKTQTWVDMTGARIAYKNWETEITAQPDGGWGYFGENCAVLSGAANGKWFDKRCRDQLPYICQFGIV | 9.1 |
| 105-08-2E12 ATRIMER complex (designed binder) EPPTQKPKKIVNAKKDVVNTKMFEELKSRLDTLAQEVALLKEQQALQTVCLKGTKVHMKCFLAFTQTKTFHEASEDCISRGGTLSTPQTGSENDALYEYLRQSVGNEAEIWLGLNGSGLTDTWVDMTGARIAYKNWETEITAQPDGGWGYFGENCAVLSGAANGKWFDKRCRDQLPYICQFGIV | 9.1 |
| 105-08-2G4 ATRIMER complex (designed binder) EPPTQKPKKIVNAKKDVVNTKMFEELKSRLDTLAQEVALLKEQQALQTVCLKGTKVHMKCFLAFTQTKTFHEASEDCISRGGTLSTPQTGSENDALYEYLRQSVGNEAEIWLGLNGSPRTGTWVDMTGARIAYKNWETEITAQPDGGFGYFGENCAVLSGAANGKWFDKRCRDQLPYICQFGIV | 2.5 |
| 105-08-2H2 ATRIMER complex (designed binder) EPPTQKPKKIVNAKKDVVNTKMFEELKSRLDTLAQEVALLKEQQALQTVCLKGTKVHMKCFLAFTQTKTFHEASEDCISRGGTLSTPQTGSENDALYEYLRQSVGNEAEIWLGLNGSPTTDTWVDMTGARIAYKNWETEITAQPDGGWGYFGENCAVLSGAANGKWFDKRCRDQLPYICQFGIV | 4 |
| 105-08-2D2 ATRIMER complex (designed binder) EPPTQKPKKIVNAKKDVVNTKMFEELKSRLDTLAQEVALLKEQQALQTVCLKGTKVHMKCFLAFTQTKTFHEASEDCISRGGTLSTPQTGSENDALYEYLRQSVGNEAEIWLGLNGSARTGTWVDMTGARIAYKNWETEITAQPDGGFGYFGENCAVLSGAANGKWFDKRCRDQLPYICQFGIV | 4.1 |
| 105-08-2C9 ATRIMER complex (designed binder) EPPTQKPKKIVNAKKDVVNTKMFEELKSRLDTLAQEVALLKEQQALQTVCLKGTKVHMKCFLAFTQTKTFHEASEDCISRGGTLSTPQTGSENDALYEYLRQSVGNEAEIWLGLNGSTLTNTWVDMTGARIAYKNWETEITAQPDGGWGYFGENCAVLSGAANGKWFDKRCRDQLPYICQFGIV | 5.3 |

Continued, values first:

| Ratio IC50 to 056-53.H4E IC50 | Binder |
| --- | --- |
| 3.3 | 105-08-2H12 ATRIMER complex (designed binder, not shown: small tags and cut ends) EPPTQKPKKIVNAKKDVVNTKMFEELKSRLDTLAQEVALLKEQQALQTVCLKGTKVHMKCFLAFTQTKTFHEASEDCISRGGTLSTPQTGSENDALYEYLRQSVGNEAEIWLGLNGSPRTETWVDMTGARIAYKNWETEITAQPDGGFGYFGENCAVLSGAANGKWFDKRCRDQLPYICQFGIV |
| 4.2 | 105-20-2C4b ATRIMER complex (designed binder) EPPTQKPKKIVNAKKDVVNTKMFEELKSRLDTLAQEVALLKEQQALQTVCLKGTKVHMKCFLAFTQTKTFHEASEDCISRGGTLSTPQTGSENDALYEYLRQSVGNEAEIWLGLNGSVKTDTWVDMTGARIAYKNWETEITAQPDGGWGYFGENCAVLSGAANGKWFDKRCRDQLPYICQFGIV |
| 6.5 | 105-08-2H10 ATRIMER complex (designed binder) EPPTQKPKKIVNAKKDVVNTKMFEELKSRLDTLAQEVALLKEQQALQTVCLKGTKVHMKCFLAFTQTKTFHEASEDCISRGGTLSTPQTGSENDALYEYLRQSVGNEAEIWLGLNGSNHTDTWVDMTGARIAYKNWETEITAQPDGGFGYFGENCAVLSGAANGKWFDKRCRDQLPYICQFGIV |
| 3 | 105-20-1B4 ATRIMER complex (designed binder, ATRIMER complex: homotrimer of three copies of this chain, joined by the tetranectin coiled coil, not shown: C-terminal tag: Myc/His (pANA4) or HA-StrepII (pANA10)) EPPTQKPKKIVNAKKDVVNTKMFEELKSRLDTLAQEVALLKEQQALQTVCLKGTKVHMKCFLAFTQTKTFHEASEDCISRGGTLSTPQTGSENDALYEYLRQSVGNEAEIWLGLNGSSRTNTWVDMTGARIAYKNWETEITAQPDGGWGYFGENCAVLSGAANGKWFDKRCRDQLPYICQFGIV |
| 5 | 105-08-2H4 ATRIMER complex (designed binder) EPPTQKPKKIVNAKKDVVNTKMFEELKSRLDTLAQEVALLKEQQALQTVCLKGTKVHMKCFLAFTQTKTFHEASEDCISRGGTLSTPQTGSENDALYEYLRQSVGNEAEIWLGLNGSVRTDTWVDMTGARIAYKNWETEITAQPDGGFGYFGENCAVLSGAANGKWFDKRCRDQLPYICQFGIV |
| 6.6 | 105-20-1A6 ATRIMER complex (designed binder) EPPTQKPKKIVNAKKDVVNTKMFEELKSRLDTLAQEVALLKEQQALQTVCLKGTKVHMKCFLAFTQTKTFHEASEDCISRGGTLSTPQTGSENDALYEYLRQSVGNEAEIWLGLNGSAKTGTWVDMTGARIAYKNWETEITAQPDGGWGYFGENCAVLSGAANGKWFDKRCRDQLPYICQFGIV |
| 4.3 | 105-08-2H11 ATRIMER complex (designed binder, not shown: C-terminal tag: His/Myc (pANA4) or HA-StrepII (pANA10)) EPPTQKPKKIVNAKKDVVNTKMFEELKSRLDTLAQEVALLKEQQALQTVCLKGTKVHMKCFLAFTQTKTFHEASEDCISRGGTLSTPQTGSENDALYEYLRQSVGNEAEIWLGLNGSPRTDTWVDMTGARIAYKNWETEITAQPDGGWGYFGENCAVLSGAANGKWFDKRCRDQLPYICQFGIV |
| 3.5 | 105-20-2C7 ATRIMER complex (designed binder, not shown: small tags and cut ends) EPPTQKPKKIVNAKKDVVNTKMFEELKSRLDTLAQEVALLKEQQALQTVCLKGTKVHMKCFLAFTQTKTFHEASEDCISRGGTLSTPQTGSENDALYEYLRQSVGNEAEIWLGLNGSVTTDTWVDMTGARIAYKNWETEITAQPDGGFGYFGENCAVLSGAANGKWFDKRCRDQLPYICQFGIV |
| 2.9 | 105-08-2H3 ATRIMER complex (designed binder, ATRIMER complex: homotrimer of three copies of this chain, joined by the tetranectin coiled coil, not shown: C-terminal tag: Myc/His (pANA4) or HA-StrepII (pANA10)) EPPTQKPKKIVNAKKDVVNTKMFEELKSRLDTLAQEVALLKEQQALQTVCLKGTKVHMKCFLAFTQTKTFHEASEDCISRGGTLSTPQTGSENDALYEYLRQSVGNEAEIWLGLNGSSLTNTWVDMTGARIAYKNWETEITAQPDGGWGYFGENCAVLSGAANGKWFDKRCRDQLPYICQFGIV |
| 2.9 | 105-20-2C4a ATRIMER complex (designed binder, ATRIMER complex: homotrimer of three copies of this chain, joined by the tetranectin coiled coil, not shown: C-terminal tag: Myc/His (pANA4) or HA-StrepII (pANA10)) EPPTQKPKKIVNAKKDVVNTKMFEELKSRLDTLAQEVALLKEQQALQTVCLKGTKVHMKCFLAFTQTKTFHEASEDCISRGGTLSTPQTGSENDALYEYLRQSVGNEAEIWLGLNGSAKTDTWVDMTGARIAYKNWETEITAQPDGGWGYFGENCAVLSGAANGKWFDKRCRDQLPYICQFGIV |
| 2 | 105-08-2H6 ATRIMER complex (designed binder) EPPTQKPKKIVNAKKDVVNTKMFEELKSRLDTLAQEVALLKEQQALQTVCLKGTKVHMKCFLAFTQTKTFHEASEDCISRGGTLSTPQTGSENDALYEYLRQSVGNEAEIWLGLNGSPVTGTWVDMTGARIAYKNWETEITAQPDGGFGYFGENCAVLSGAANGKWFDKRCRDQLPYICQFGIV |
